This note sets out measurements from patent CN113045662A (SEEBIO BIOTECHNOLOGY SHANGHAI CO LTD, dated 2021).

In this test the target is T1, PD-L1-Ig-V (UniProt Q9NZQ7 19-134).
T1 construct: domain: Ig-V; also called PD-L1胞外域蛋白; not shown: His-Tag from the pET-28a vector
The test can be described thus: non-competitive checkerboard ELISA, mean of 6 K values. (ELISA stands for enzyme-linked immunosorbent assay.)

T1 sequence (Q9NZQ7 19-134): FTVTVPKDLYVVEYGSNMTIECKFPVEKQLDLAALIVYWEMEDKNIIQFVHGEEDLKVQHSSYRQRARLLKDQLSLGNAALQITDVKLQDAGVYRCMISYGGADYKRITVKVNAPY

B1: PD-L1-Ig-V-VHH 6-21 (VHH)
VHH: DVQLQASGGGLVQAGGSLRLSCAASRMIFSTFSIQDMGWYRQAPGKQRDLVALITSDGSTNYADSVKGRFTISRDNAKSTVYLQMNNLKPEDTAVYYCAATDNVSGGRLLLNIWWMRDMWYNYWGQGTLVTVSS
notes: Nanobody from a synthetic phage display library (pCANTAB5E, M13K07 helper phage); also called 6-21号克隆
As for B1, the Ka is ~1.93e+08 M⁻¹.
